T1: AePiwi4 PAZ T41A (Aedes aegypti, UniProt Q171B3 270-380, T310A)
T1 sequence: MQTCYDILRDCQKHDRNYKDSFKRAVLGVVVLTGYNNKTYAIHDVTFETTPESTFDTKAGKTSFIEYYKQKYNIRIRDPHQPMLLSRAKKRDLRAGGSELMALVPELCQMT

T2: AePiwi4 PAZ Y40A (Aedes aegypti, UniProt Q171B3 270-380, Y309A)
T2 sequence: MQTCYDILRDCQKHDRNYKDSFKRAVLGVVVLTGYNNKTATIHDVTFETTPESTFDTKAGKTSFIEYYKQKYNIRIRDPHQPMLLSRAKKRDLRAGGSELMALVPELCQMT

T3: AePiwi4 PAZ T41R (Aedes aegypti, UniProt Q171B3 270-380, T310R)
T3 sequence: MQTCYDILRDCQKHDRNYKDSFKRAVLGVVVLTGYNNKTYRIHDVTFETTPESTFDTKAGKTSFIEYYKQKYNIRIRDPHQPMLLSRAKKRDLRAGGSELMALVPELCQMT

T4: AePiwi4 PAZ F55A (Aedes aegypti, UniProt Q171B3 270-380, F324A)
T4 sequence: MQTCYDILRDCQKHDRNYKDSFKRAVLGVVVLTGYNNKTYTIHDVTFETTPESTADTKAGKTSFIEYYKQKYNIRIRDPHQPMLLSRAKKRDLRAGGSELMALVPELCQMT

T5: AePiwi4 PAZ T39A (Aedes aegypti, UniProt Q171B3 270-380, T308A)
T5 sequence: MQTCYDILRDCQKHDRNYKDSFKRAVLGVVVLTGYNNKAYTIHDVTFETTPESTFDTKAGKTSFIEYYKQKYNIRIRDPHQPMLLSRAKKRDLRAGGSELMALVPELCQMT

T6: AePiwi4 PAZ WT (Aedes aegypti, UniProt Q171B3 270-380)
T6 sequence: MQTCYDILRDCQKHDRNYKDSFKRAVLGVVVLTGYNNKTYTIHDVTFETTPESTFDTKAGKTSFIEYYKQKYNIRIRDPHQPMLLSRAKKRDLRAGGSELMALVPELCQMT


Experiments:
Experiment in all cases: SPR; SPR (Biacore T100, CM5-neutravidin, 5'-biotin RNA immobilized): 10 mM HEPES pH 7.4, 150 mM NaCl, 3 mM EDTA, 0.005% P20; steady-state fit; temperature not stated
Details in all cases: protein: recombinant; tags: 6xHis (C-terminal); label: 5' biotin; single strand
AePiwi4 PAZ T41A = target: T1, AePiwi4 PAZ T41A
AePiwi4 PAZ Y40A = target: T2, AePiwi4 PAZ Y40A
AePiwi4 PAZ T41R = target: T3, AePiwi4 PAZ T41R
AePiwi4 PAZ F55A = target: T4, AePiwi4 PAZ F55A
AePiwi4 PAZ T39A = target: T5, AePiwi4 PAZ T39A
AePiwi4 PAZ WT = target: T6, AePiwi4 PAZ WT

Binder	Kd (AePiwi4 PAZ T41A)	binding result (AePiwi4 PAZ Y40A)	Kd (AePiwi4 PAZ T41R)	binding result (AePiwi4 PAZ F55A)	Kd (AePiwi4 PAZ T39A)	Kd (AePiwi4 PAZ WT)	Kd (AePiwi4 PAZ Y40A)
CGAUAAGUGAUCUUUCAGCACUGCAGAA (ssRNA) [3'nm 28 nt PCLV piRNA]	5600 ± 1200 nM	no binding	2000 ± 500 nM	no binding	2800 ± 400 nM	5000 ± 2200 nM	
CGAUAAGUGAUCUUUCAGCACUGCAGAA (ssRNA, 3' terminal 2'-O-methyl) [3'm 28 nt PCLV piRNA]	1400 ± 100 nM		570 ± 100 nM	no binding	980 ± 200 nM	1700 ± 800 nM	5500 ± 500 nM
AUGAGGACAUAAGCCUACGUAGUAUUCC (ssRNA) [3'nm 28 nt scrambled RNA]						2500 ± 100 nM	
